One block for each molecule: values may come before it. Where no end group is shown, it is not given here. The star is where a group is joined. FITC = O=C1OC2(c3ccc(O)cc3Oc3cc(O)ccc32)c2ccc(NC(=S)*)cc21; βAla = NCCC(=O)O
Assays:
[1] = target: C-terminal deleted GST-BCL-2 (UniProt P10415); assay: fluorescence polarization, displacement of prebound FITC-BID BH3 from BCL-2
[2] = target: C-terminal deleted GST-BCL-2 (UniProt P10415); assay: fluorescence polarization binding
[3] = target: C-terminal deleted GST-BCL-2 (UniProt P10415); assay: direct fluorescence polarization, 25 nM fluoresceinated peptide with GST-BCL2 25-1000 nM
[4] = target: C-terminal deleted GST-BCL-2 (UniProt P10415); assay: direct fluorescence polarization
[5] = target: C-terminal deleted GST-BCL-2 (UniProt P10415); assay: fluorescence polarization competitive binding, FITC-BID BH3 as competitor
[6] = target: C-terminal deleted GST-BCL-2 (UniProt P10415); assay: fluorescence polarization, displacement of FITC-BID BH3 from BCL-2
Full-length BAX protein = target: T1, Full-length BAX protein (UniProt Q07812 1-192, limits assumed); assay: BAX fluorescence polarization direct binding assay
T1 construct: mature
T1 sequence (Q07812 whole entry): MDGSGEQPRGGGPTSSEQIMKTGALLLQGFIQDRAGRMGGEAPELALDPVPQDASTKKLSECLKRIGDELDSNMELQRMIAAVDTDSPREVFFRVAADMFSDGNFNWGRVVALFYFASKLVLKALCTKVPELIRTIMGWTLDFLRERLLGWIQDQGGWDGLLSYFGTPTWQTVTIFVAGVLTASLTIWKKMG

[7] = target: C-terminal deleted GST-BCL-2 (UniProt P10415); assay: fluorescence polarization direct binding

Molecule: BAD BH3 domain peptide (from UniProt Q92934 103-127)
IC50 [1]: 173 nM | Kd [2]: 41 nM

Molecule: FITC-SAHB3BIDA (peptide)
Kd [3]: 38.8 nM | fold enhancement in binding affinity against unmodified BID BH3 [4]: > 6 fold | fold enhancement in binding affinity against unmodified BID BH3 peptide [4]: 6 fold

Molecule: SAHB3BID(tr)B (16-mer) (peptide)
fold drop against the 23-mer SAHB3BIDB [5]: > 6 fold

Other lines, results leading:

Kd [3]: 483 nM
Molecule: FITC-SAHB3BID(G→E)A (peptide)

IC50 [6]: 62 nM | fold increase in displacement potency against unmodified BID BH3 peptide [6]: > 13 fold
Molecule: SAHB3BIDA (unlabeled) (peptide)

binding result (Full-length BAX protein): no binding | Kd [7]: 220 nM
B1: FITC-labeled unmodified BID BH3 peptide (peptide, UniProt P55957 80-101, looked up)
peptide: {FITC-βAla}-EDIIRNIARHLAQVGDSMDRSI
notes: domain: BH3; also called FITC-BID BH3; FITC-labeled BID BH3 peptide
